Experiment [1] deals with T1, mutated HER3(Y>F) in NRG1-beta1-stimulated Hek293 cells, 14 tyrosines of the intracellular domain replaced … (UniProt P21860 20-1342, limits assumed).
T1 construct: whole, on cells; also called mutated version of HER3 lacking the Tyr1289 phosphorylation site
Briefly: IHC (Ventana BenchMark XT), ssFab on 4xC18 linker, FFPE Hek293 cells.
Description: (§1) Hek293 cells had been transiently transfected with both HER2 and HER3 expression vectors. In one case an HER3 expression vector was used that encodes an mutated version of HER3, in which 14 tyrosines of the intracellular domain that serve as phosphorylation sites are replaced with phenylalanines (Y975F, Y1054F, Y1132F, Y1159F, Y1197F, Y1199F, Y1222F, Y1224F, Y1260F, Y1262F, Y1276F, Y1289F, Y1307F, Y1328F). Cells were fixed with formalin and embedded in paraffin according to standard protocols.
(§2) 1 μg/ml per ssFab fragment of only ssFab 7.2.32 or only ssFab 4.1.15, respectively, and an equimolar amount of 4×C18 linker, as well as a mixture of both ssFab′ fragments of ssFab 7.2.32 and ssFab 4.1.15 (both at 1 μg/ml) and an equimolar amount of 4×C18 linker, respectively, were used for detection. A biotin label within the linker molecule served as a detection tag for the streptavidin-based Ventana iVIEW DAB detection kit.

Experiment [2] concerns the target T2, wild-type HER3 in unstimulated Hek293 cells (transfected with HER2 and HER3) (UniProt P21860 20-1342, limits assumed).
T2 construct: whole, on cells; also called HER3 (unstimulated cells)
Described as above.
Description: as §1, §2

Experiment [3] has as its target T1, mutated HER3(Y>F) in …. Briefly: IHC (Ventana BenchMark XT), FFPE Hek293 cells.
Protocol: The IHC experiments were performed on the BenchMark XT platform from Ventana. For the assay an anti-pHER3 dual binder was used that consisted of ssFab 7.2.32 (binding a non-phospho epitope of the intracellular domain of HER3), ssFab 4.1.15 (binding the pTyr1289 phospho-epitope of the intracellular domain of HER3) and a flexible linker. […] A biotin label within the linker molecule served as a detection tag for the streptavidin-based Ventana iVIEW DAB detection kit.
In order to test the specificity of the anti-pHER3 dual binder molecule an elaborate test system based on formalin-fixed paraffin-embedded (FFPE) Hek293 cells was used. Hek293 cells had been transiently transfected with both HER2 and HER3 expression vectors. In one case an HER3 expression vector was used that encodes an mutated version of HER3, in which 14 tyrosines of the intracellular domain that serve as phosphorylation sites are replaced with phenylalanines (Y975F, Y1054F, Y1132F, Y1159F, Y1197F, Y1199F, Y1222F, Y1224F, Y1260F, Y1262F, Y1276F, Y1289F, Y1307F, Y1328F). Cells were fixed with formalin and embedded in paraffin according to standard protocols. […]
The target of experiment [4] is T3, IGF-1R(1340-1366)[1346-pTyr]amid, phosphorylated IGF-1R peptide (phosphotyrosine at 1346 (IGF-1R numbering); C-terminal amide; in Examples 2.6 and 2.7 a biotinylated PEG-linker bound via glutamic acid at position 1340).
T3 construct: also called pIGF-1R peptide; pIGF-1R
T3 peptide: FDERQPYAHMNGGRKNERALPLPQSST
Briefly: SPR (Biacore 3000, SA sensor, 25 C): both ssFab' hybridized on the immobilized biotinylated 8xC18 linker, pIGF-1R peptide injected as analyte. For orientation: SPR reads the build-up and loss of mass on a sensor chip optically.
Protocol: 89 RU amino-PEO-biotin were captured on the reference flow cell 1.
(§3) The system was regenerated after each concentration step with a 12 sec pulse of 250 mM NaOH and was reloaded with ssFab ligand.

The target of experiment [5] is T3, IGF-1R(1340-1366)[1346-pTyr]amid, …. Briefly: SPR (Biacore 3000, 25 C).
In experiment [6] the target is T4, phosphorylated IR in IR overexpressing 3T3 cells stimulated with Insulin (UniProt P06213 28-1382, limits assumed, phosphorylated after stimulation with 100 ng/ml Insulin).
T4 construct: whole, on cells; also called pIR (cells)
T4 sequence (P06213 28-1382 limits assumed): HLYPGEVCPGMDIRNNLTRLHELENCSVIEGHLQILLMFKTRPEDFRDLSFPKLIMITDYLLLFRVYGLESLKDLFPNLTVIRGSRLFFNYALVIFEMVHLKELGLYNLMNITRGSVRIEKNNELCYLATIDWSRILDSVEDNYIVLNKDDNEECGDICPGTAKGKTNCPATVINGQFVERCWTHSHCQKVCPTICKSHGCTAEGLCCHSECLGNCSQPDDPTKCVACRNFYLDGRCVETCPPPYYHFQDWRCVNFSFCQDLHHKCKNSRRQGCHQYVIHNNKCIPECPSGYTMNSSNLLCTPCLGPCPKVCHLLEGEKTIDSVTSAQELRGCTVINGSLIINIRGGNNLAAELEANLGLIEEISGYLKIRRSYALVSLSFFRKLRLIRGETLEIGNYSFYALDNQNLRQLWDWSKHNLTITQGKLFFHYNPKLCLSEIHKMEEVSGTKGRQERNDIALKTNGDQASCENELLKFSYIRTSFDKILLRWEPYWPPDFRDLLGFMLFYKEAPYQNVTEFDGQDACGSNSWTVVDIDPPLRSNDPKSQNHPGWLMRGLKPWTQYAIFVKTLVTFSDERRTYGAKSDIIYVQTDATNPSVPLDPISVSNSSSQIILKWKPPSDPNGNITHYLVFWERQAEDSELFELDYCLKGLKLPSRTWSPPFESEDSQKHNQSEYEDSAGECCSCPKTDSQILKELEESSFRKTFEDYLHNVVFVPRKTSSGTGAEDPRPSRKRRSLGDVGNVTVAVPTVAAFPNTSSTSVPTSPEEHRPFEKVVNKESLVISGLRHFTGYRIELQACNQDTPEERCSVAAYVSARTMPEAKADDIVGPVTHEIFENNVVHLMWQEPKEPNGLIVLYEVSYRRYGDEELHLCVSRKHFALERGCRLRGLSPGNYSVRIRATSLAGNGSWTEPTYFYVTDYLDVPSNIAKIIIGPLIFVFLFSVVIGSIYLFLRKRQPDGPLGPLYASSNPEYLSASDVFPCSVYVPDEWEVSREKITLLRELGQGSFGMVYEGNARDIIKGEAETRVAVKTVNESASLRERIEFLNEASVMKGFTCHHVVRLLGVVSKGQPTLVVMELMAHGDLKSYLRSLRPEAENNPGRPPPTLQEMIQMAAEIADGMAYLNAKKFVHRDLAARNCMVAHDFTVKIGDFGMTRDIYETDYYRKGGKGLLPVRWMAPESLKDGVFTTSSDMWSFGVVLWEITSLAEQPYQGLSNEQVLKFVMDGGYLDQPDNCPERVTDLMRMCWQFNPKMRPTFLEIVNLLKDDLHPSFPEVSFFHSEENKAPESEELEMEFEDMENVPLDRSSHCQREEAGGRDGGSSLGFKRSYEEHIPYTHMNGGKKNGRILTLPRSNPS
Briefly: IHC (Ventana BenchMark XT), FFPE 3T3 cells.
Protocol: (§4) In order to test the specificity of the anti-pIGF-1R dual binder molecule an elaborate test system based on formalin-fixed paraffin-embedded (FFPE) 3T3 cells was used. 3T3 cells had been stably transfected with either IGF-1R or IR expression vectors. Cells were fixed with formalin and embedded in paraffin according to standard protocols. Prior to fixation cells were stimulated with 100 ng/ml of either IGF-1 or Insulin to induce IGF1-R or IR phosphorylation or were left untreated.
(§5) A biotin label within the linker molecule served as a detection tag for the streptavidin-based Ventana iVIEW DAB detection kit.

In experiment [7] the target is T5, IR (insulin receptor) in untreated IR overexpressing 3T3 cells (UniProt P06213 28-1382, limits assumed).
T5 construct: whole, on cells; also called IR (unstimulated)
T5 sequence (P06213 28-1382 limits assumed): as above
Briefly: IHC (Ventana BenchMark XT), FFPE 3T3 cells.
Protocol: as §4, §5

Experiment [8] concerns the target T3, IGF-1R(1340-1366)[1346-pTyr]amid, …. Briefly: SPR (Biacore 3000, 25 C), ssFab's on biotinylated 8xC18 linker on SA chip, pIGF-1R peptide injected.
Protocol: as §3

Several values for one entry are separate records, joined by “and”; a condition that tells them apart may be missing. Identical values can stand only once.

T1 sequence (P21860 other isoform, or with tags, fused parts or gaps limits assumed, change not shown): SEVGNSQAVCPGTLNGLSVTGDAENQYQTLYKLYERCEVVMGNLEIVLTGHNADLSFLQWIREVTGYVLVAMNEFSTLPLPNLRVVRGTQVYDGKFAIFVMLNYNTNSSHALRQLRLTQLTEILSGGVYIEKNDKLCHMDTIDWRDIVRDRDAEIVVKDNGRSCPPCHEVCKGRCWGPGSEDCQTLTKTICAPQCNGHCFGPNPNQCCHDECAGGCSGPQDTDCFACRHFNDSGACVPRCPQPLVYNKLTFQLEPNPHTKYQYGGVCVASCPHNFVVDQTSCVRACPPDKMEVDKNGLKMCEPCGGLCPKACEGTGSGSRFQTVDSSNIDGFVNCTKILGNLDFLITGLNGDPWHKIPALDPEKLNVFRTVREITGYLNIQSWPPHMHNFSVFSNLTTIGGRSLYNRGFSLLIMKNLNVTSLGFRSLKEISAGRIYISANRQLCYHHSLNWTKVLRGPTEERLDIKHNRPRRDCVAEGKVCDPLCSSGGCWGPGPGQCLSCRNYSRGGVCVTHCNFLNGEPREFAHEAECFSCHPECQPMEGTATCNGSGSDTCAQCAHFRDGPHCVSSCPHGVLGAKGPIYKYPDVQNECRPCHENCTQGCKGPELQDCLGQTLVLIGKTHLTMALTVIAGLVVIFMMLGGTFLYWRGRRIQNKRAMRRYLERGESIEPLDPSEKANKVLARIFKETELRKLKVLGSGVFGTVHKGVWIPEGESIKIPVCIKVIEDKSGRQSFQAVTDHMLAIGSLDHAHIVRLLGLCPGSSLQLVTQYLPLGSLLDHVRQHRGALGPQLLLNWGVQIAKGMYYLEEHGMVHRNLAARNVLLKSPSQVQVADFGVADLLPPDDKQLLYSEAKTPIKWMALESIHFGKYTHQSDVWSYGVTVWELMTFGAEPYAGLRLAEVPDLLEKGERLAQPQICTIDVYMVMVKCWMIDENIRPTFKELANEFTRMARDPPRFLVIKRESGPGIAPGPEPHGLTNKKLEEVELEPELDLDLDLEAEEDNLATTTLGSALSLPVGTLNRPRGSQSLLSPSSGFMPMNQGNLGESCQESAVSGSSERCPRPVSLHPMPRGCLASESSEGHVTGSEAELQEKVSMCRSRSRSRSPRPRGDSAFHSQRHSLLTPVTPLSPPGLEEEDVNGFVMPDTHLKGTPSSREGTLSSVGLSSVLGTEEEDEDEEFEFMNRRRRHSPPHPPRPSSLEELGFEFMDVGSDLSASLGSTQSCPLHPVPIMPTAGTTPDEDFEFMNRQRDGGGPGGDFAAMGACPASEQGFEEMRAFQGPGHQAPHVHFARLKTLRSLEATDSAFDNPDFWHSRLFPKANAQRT
T2 sequence (P21860 20-1342 limits assumed): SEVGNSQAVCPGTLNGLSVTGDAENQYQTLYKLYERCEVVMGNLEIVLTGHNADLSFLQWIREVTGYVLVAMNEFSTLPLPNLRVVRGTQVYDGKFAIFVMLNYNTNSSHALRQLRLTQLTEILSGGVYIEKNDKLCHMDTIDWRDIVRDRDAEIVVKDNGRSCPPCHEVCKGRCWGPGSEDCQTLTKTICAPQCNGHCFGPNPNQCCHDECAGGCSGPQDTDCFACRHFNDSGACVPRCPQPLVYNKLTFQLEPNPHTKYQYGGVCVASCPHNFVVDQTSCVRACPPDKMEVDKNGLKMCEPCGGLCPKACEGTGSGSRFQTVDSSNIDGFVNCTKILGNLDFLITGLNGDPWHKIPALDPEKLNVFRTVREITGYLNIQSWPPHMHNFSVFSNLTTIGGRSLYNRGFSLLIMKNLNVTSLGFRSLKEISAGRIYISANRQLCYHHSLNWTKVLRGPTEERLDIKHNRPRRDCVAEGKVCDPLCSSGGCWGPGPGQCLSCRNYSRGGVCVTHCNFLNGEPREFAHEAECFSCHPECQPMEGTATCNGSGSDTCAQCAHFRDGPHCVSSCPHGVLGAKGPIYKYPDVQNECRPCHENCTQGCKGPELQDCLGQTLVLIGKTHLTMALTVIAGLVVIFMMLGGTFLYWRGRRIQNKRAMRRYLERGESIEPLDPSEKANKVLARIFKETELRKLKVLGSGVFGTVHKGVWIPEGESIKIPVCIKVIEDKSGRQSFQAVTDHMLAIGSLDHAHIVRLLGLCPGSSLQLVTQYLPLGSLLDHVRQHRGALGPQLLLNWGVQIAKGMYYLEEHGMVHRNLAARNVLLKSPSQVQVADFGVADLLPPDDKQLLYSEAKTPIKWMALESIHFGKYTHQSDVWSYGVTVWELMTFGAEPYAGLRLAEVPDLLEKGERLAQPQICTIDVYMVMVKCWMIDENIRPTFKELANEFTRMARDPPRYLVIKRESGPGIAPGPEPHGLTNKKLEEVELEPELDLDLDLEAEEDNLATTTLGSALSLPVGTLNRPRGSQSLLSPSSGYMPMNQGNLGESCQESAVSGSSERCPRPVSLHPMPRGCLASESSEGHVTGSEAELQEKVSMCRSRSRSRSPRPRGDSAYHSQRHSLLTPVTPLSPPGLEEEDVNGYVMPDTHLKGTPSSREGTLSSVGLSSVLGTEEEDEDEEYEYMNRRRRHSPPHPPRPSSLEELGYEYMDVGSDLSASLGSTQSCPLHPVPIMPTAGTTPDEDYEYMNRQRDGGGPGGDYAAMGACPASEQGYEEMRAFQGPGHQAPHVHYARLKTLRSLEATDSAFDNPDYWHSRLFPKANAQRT

B1: ssFab 4.1.15 (recombinant Fab 4.1.15 conjugated to the 17 mer oligo by sortase) (Fab, V domains shown)
VH: EVQLQESGPELVKPGTSVTISCKTSGYAFSNSWMSWVKQRPGQGLEWIGRIFPGNGDTDYNGNFRAKATLTADKSSSTAFMQLSRLTSVDSAVYFCARSRGLRQGAGFAYWGQGTLVTVSA
VL: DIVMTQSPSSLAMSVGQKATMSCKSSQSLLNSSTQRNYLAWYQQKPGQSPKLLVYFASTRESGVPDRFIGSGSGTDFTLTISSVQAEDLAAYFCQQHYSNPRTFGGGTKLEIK
notes: also called Fab-Oligo 4.1.15
As for B1, the binding result in experiment [1] and in experiment [2] was “no binding (tested: 1 µg/ml)” each time.

B2: anti-pHER3 dual binder consisting of ssFab 7.2.32, ssFab 4.1.15 and a flexible linker with a 4xC18 spacer (linker 12 of example 2.4) (bispecific antibody, V domains shown)
VH 1: EFEVQLQESGGGLVQPKGSLQLSCAASGFTFNTYAMHWVRQAPGKGLEWVARIRTESSDYATDYADSVKDRFIISRDDSQNMLYLQMNNLKSEDTAIYYCVRSSGFDYWGQGTTLTVSSS
VL 1: DIQMTQSPSLPVSLGDQASISCRSSQSLVHDNGNTYLHWFLQKPGQSPKLLIYKVSNRFSGVPDRFGGSGSGTDFTLKISGVEAEDLGVYFCSQGTHVPTFGGGTKLEIK
VH 2: EFEVQLQESGPELVKPGTSVTISCKTSGYAFSNSWMSWVKQRPGQGLEWIGRIFPGNGDTDYNGNFRAKATLTADKSSSTAFMQLSRLTSVDSAVYFCARSRGLRQGAGFAYWGQGTLVTVSA
VL 2: not shown
notes: Two recombinant Fab-oligo conjugates hybridised on biotinylated linker 12 ((Spacer C18)2-(Biotin-dT)-(Spacer C18)2)
Take B2: the binding result in experiment [3] is “no binding (tested: 1 µg/ml per ssFab)”.

B3: anti-pIGF-1R dual binder composed of ssFab' 1.4.168, ssFab' 30.4.33 and an 8xC18 linker molecule (linker 14 of example 2.4) (bispecific antibody, V domains shown)
VH 1: EVQLQESGPEVAKPGASVKMSCKASGYTFTDYIIHWVKQRPGQDLEWIGYINPYNDKSKYNEKFKDKATLTSDRSSSTSYMDLSTLTSDDSAVYYCTRHGYYRSDGFDYWGQGTTLTVSS
VL 1: DIVLTQSPTIMSASPGEKVTMTCRASSSVSSSSLHWYQQKPGSSPKLWIYSTSTLASGVPARFSGSGSGTSYSLTISGVETEDAATYYCQQYGTSPYTFGSGTKVDIK
VH 2: QCDVKLVESGGGLVKPGGSLKLSCAASGFTFSDYPMSWVRQTPEKRLEWVATITTGGTYTYYPDSIKGRFTISRDNAKNTLYLQMGSLQSEDAAMYYCTRVKTDLWWGLAYWGQGTLVTVSA
VL 2: QLVLTQSSSASFSLGASAKLTCTLSSQHSTYTIEWYQQQPLKPPKYVMELKKDGSHTTGDGIPDRFSGSSSGADRYLSISNIQPEDESIYICGVGDTIKEQFVYVFGGGTKVTVLG
modifications: 17 mer ssDNA (SEQ ID NO:6) on hinge cysteine; ssDNA oligonucleotide on the Fab' hinge region
notes: Two Fab'-ssDNA conjugates hybridised on biotinylated linker 14 ((Spacer C18)4-(Biotin-dT)-(Spacer C18)4)
For the molecule B3, in experiment [4], the Kd was 11.2 pM and 11 pM; the kon is 1.24e+06 M⁻¹ s⁻¹. In experiment [5], the “fold affinity improvement compared to ssFab' 1.4.168 alone” value stood at 300 fold, the “fold affinity improvement compared to ssFab' 30.4.33 alone” value is 200 fold, the “fold lower off-rate than ssFab' 1.4.168” value was 230 fold and the “fold lower off-rate than ssFab' 30.4.33” value turned out to be 110 fold. Besides, the binding result in experiment [6] is listed as “no binding (tested: 0.5 µg/ml per ssFab')”. In addition, in experiment [7], the binding result was “no binding (tested: 0.5 µg/ml per ssFab')”. In addition, in experiment [8], the equilibrium dissociation constant (Kd) was about 10 pM and the koff came out at 1.39e-05 s⁻¹.

For orientation: Kd means the free concentration of one partner at which half of the binding sites on the other are occupied at equilibrium, for simple one-to-one binding. A higher Kd goes with lower affinity. One may read the kon as a measure of how fast the partners come together. Higher therefore signals faster complex formation. For orientation: koff means the first-order rate constant of dissociation. A lower koff goes with a long-lived complex.

The record behind these values is patent US20130288266A1 (ROCHE DIAGNOSTICS OPERATIONS, published 2013).
